Broadly, the Kd is the constant that tells how readily two partners part at equilibrium. Low readings indicate higher affinity, high ones lower affinity. A word on the koff: it is the first-order rate constant of dissociation. A low value points to a long-lived complex. By kon is commonly meant the rate constant with which the complex forms. In general, EC50 (read off the curve) refers to the concentration needed to bring the measured effect to its halfway point. A word on the EC50: it is the concentration giving half of the maximal effect.

For experiment [1], the target named is T1, hGUCY2C ECD-His (human, UniProt P25092 24-430).
T1 construct: also called human GUCY2C protein
The experiment can be described thus: SPR Biacore, antibody captured. Background: SPR reads the build-up and loss of mass on a sensor chip optically.

In experiment [2] the target is T2, Human GUCY2C protein on cells (HCT116/hGUCY2C, HT-55, T84, LS1034, LS174T) (human, UniProt P25092 24-1073).
T2 construct: also called GUCY2C on the cell surface
The experiment can be described thus: flow cytometry on T84 cells, PE anti-human IgG Fc secondary antibody.

Experiment [3] addresses T2, Human GUCY2C protein on cells …. In words: cell-based or functional assay.
Experiment [4] deals with T1, hGUCY2C ECD-His. In words: ELISA, antigen on streptavidin plate. The method, then: In this test example, the binding activity of the GUCY2C-CD3 bispecific antibodies for human GUCY2C was detected by ELISA. The specific procedures are as follows:
The plate was coated by adding 100 ng of streptavidin (ACRO #STN-N5116) to the reaction wells and incubated overnight at 4° C. After the blocking with 1% BSA (PBS), 100 ng of hGUCY2C ECD-His was added, and the mixture was incubated at 37° C. for 1 h. After plate washing, the gradiently diluted antibody was added, and the mixture was incubated at 37° C. for 1 h. […] After plate washing, a substrate solution was added, and a stop solution was then added after sufficient color development to stop the reaction. The signal values at […] were read using a microplate reader.
Background: In an ELISA, binding on a coated surface is turned into a signal by an enzyme label.

For experiment [5], the target named is T2, Human GUCY2C protein on cells …. The experiment can be described thus: flow cytometry on HCT116/hGUCY2C cells, R-PE goat anti-human IgG secondary antibody.
Protocol: Experiment 1: 1E5 cells resuspended in 1% BSA were added to the reaction wells, and the supernatant was removed after centrifugation. Diluted antibody of the corresponding concentration was added, and the mixture was incubated at room temperature for 30 min and then washed twice with 1% BSA. […] After the plate was washed twice with 10% BSA, fluorescence signals were read using a flow cytometer.
For experiment [6] the target is unchanged. The experiment can be described thus: cell-based or functional assay. This is another data set of the same source.
Experiment [7] addresses T1, hGUCY2C ECD-His. The experiment can be described thus: competition ELISA, row antibody coated; competitor 1608-biotinylated.
Experiment [8] addresses T1, hGUCY2C ECD-His. The experiment can be described thus: competition ELISA, row antibody coated; competitor 81 L3H1-biotinylated.
Experiment [9] concerns the target T1, hGUCY2C ECD-His. In words: competition ELISA, row antibody coated; competitor 146 L1H1-biotinylated.
Experiment [10] concerns the target T1, hGUCY2C ECD-His. The experiment can be described thus: competition ELISA, row antibody coated; competitor P3-C7 L7H1-biotinylated.
The target in experiment [11] is T2, Human GUCY2C protein on cells …. The experiment can be described thus: flow cytometry on HCT116/hGUCY2C cells, PE anti-human IgG Fc secondary antibody.
For experiment [12] the target is unchanged. Described as above. This is another data set of the same source.
Experiment [13] shares this target. The experiment is described as above. This is another data set of the same source.
Experiment [14] shares this target. The experiment can be described thus: cell-based or functional assay. This is another data set of the same source.

Read-outs that look alike come from different tables or passages of the source.

B1: M61 CHI (antibody, human IgG1, kappa, V domains shown)
VH: EVQLQQSGPELVRPGASVKISCTASGYTITDYYMSWVKQSHGKSPEWIGDINPNNGGTSDNQKFKGKATLTVDKSSSTAYMEYRSLTSEDSAVYYCARGRGMVARYFDIWGTGTTVTVSS
VL: EILLTQSPTTMAASPGEKITITCSASSSISSNFLHWYQEKPGFSPKLLIYRTSNLASGVPARFSGSGSGTSYSLTIGSMEAEDVATYYCQQGSGLPLTFGAGTKLELKR
notes: chimeric
In the experiment with hGUCY2C ECD-His [1], B1 came in with a Kd of 4490 pM, a koff of 0.000228 s⁻¹ and a kon of 50800 M⁻¹ s⁻¹. Also, the concentration giving a half-maximal response (EC50 (read off the curve)) in [2] was about 2000 pM.

B2: 81 L3H1-2 (N103QN106Q) (bispecific antibody)
heavy 1: not shown
light 1: not shown
heavy 2: EVQLVQSGAEVKKPGASVKVSCKASGYTFTDHNMNWVKQAPGQRLEWMGVMNPKFGTINYNQKFKDKATITRDTSASTAYMELSSLRSEDTAVYYCARDNYPNYFDYWGQGTTVTVSSGGGGSSGAPRFLTRPKASVVSVGKDATLSCQIVGNPFPQVSWEKDKQPVTAGVRFRLAQDGDLYRLKILDLQLSDSGQYVCRARNAHGEAFACLGLQVDAEADKTHTCPPCPAPEAAGGPSVFLFPPKPKDTLMISRTPEVTCVVVDVSHEDPEVKFNWYVDGVEVHNAKTKPREEQYNSTYRVVSVLTVLHQDWLNGKEYKCKVSNKALPAPIEKTISKAKGQPREPQVCTLPPSREEMTKNQVSLSCAVKGFYPSDIAVEWESNGQPENNYKTTPPVLDSDGSFFLVSKLTVDKSRWQQGNVFSCSVMHEALHNHYTQKSLSLSPGK
light 2: DIQLTQSPSFLSASPGDRVTITCSASSSVNYMYWYQQKPGSSPKSWIYRTSNLASGVPSRFSGSGSGTEYTLTISSLQPEDFATYYCQQYHDYPPTFGGGTKVEIKGGGGSGIPPKIECLPIDISIDEGKVLTVASAFTGEPTPEVTWSTGGRKIHSQEQGRFHIENTDDSTTLTIKDVQKQDGGLYTLTLRNEFGSDSATVNIHIRSI
In the case of B2, in experiment [3], the “IC50 (nM), killing of LS174T with PBMC” value amounted to 0.16 nM.

B3: 1608-BsAb (bispecific antibody)
chain 1: DIQLTQSPSSLSASVGDRVTITCRASESVDYYGSSLLQWYQQKPGKAPKLLIYAASKLASGVPSRFSGSGSGTDFTLTISSLQPEDFATYYCQQTRKAYTFGQGTKLEIKGGGSGGGGEVQLVESGGGLVQPGGSLRLSCAASGFTFSDYYMTWVRQAPGKGLEWVAFIRNQARGYTSDHNPSVKGRFTISRDNAKNSLYLQMNSLRAEDTAVYYCARDRPSYYVLDYWGQGTTVTVSSGCPPCPAPEAAGAPSVFLFPPKPKDTLMISRTPEVTCVVVDVSHEDPEVKFNWYVDGVEVHNAKTKPREEQYNSTYRVVSVLTVLHQDWLNGKEYKCKVSNKALPAPIEKTISKAKGQPREPQVCTLPPSREEMTKNQVSLWCLVKGFYPSDIAVEWESNGQPENNYKTTPPVLDSDGSFFLYSKLTVDKSRWQQGNVFSCSVMHEALHNHYTQKSLSLSPG
chain 2: DIQMTQSPSSLSASVGDRVTITCTSSQSLFNVRSQKNYLAWYQQKPGKAPKLLIYWASTRESGVPSRFSGSGSGTDFTLTISSLQPEDFATYYCKQSYDLFTFGGGTKVEIKGGGGSGGGGEVQLVESGGGLVQPGGSLRLSCAASGFTFSSYWMHWVRQAPGKGLEWIGEIKPSNELTNVHEKFKDRFTISVDKAKNSAYLQMNSLRAEDTAVYYCTRTITTTEGYWFFDVWGQGTLVTVSSGCPPCPAPEAAGAPSVFLFPPKPKDTLMISRTPEVTCVVVDVSHEDPEVKFNWYVDGVEVHNAKTKPREEQYNSTYRVVSVLTVLHQDWLNGKEYKCKVSNKALPAPIEKTISKAKGQPREPQVYTLPPCREEMTKNQVSLSCAVKGFYPSDIAVEWESNGQPENNYKTTPPVLDSDGSFFLVSKLTVDKSRWQQGNVFSCSVMHEALHNHYTQKSLSLSPG
Turning to B3, the EC50 in the experiment with hGUCY2C ECD-His [4] is 1230 pM. The “EC50 (read off the curve)” value in experiment [5] is about 1000 pM.

B4: M42 CHI (antibody, human IgG1, kappa, V domains shown)
VH: QIQLKQSGPGLVQPSQSLSITCTVSGFSLTSYAVHWVRQSPGKGLEWLGVIWTGGNTRSNAAFMSRLTITKDNSKSQVFFKMNSLQADDTAIYFCAKNSLLDYAMDYWGQGTSVTVSS
VL: ENVLTQSPVIMSASPGEKVTMTCRASSFVGSGYLHWYQQKSGASPKLWIYSTSKLASGVPARFSGSGSGTSFFLTISRVEIEDAAAYYCQQSSGYPLTFGGGSKLEIKR
notes: chimeric
B4: in the experiment with hGUCY2C ECD-His [1], the Kd was found to be 8990 pM, the koff was found to be 0.000335 s⁻¹ and the kon was found to be 37300 M⁻¹ s⁻¹. Further, in experiment [2], the “EC50 (read off the curve)” value is about 500 pM.

B5: P3-C7 L7H1-3 (bispecific antibody)
heavy 1: not shown
light 1: DVVMTQTPLSLPVTPGEPASISCRSSQSLVHSNQNTYLHWYLQKPGQSPQLLIYKVSNRFSGVPDRFSGSGSRTDFTLKISRVEAEDVGVYYCSQSTHVPYTFGGGTKVEIKGGGGSGIPPKIECLPIDISIDEGKVLTVASAFTGEPTPEVTWSTGGRKIHSQEQGRFHIENTDDSTTLTIKDVQKQDGGLYTLTLRNEFGSDSATVNIHIRSI
heavy 2: not shown
light 2: not shown
As for B5, in [6], the “IC50 (nM), killing of LS174T with PBMC” value was determined as 0.49 nM.

B6: 1608 (antibody, human IgG1, kappa, V domains shown)
VH: EVQLVESGGGLVQPGGSLRLSCAASGFTFSSYWMHWVRQAPGKGLEWIGEIKPSNELTNVHEKFKDRFTISVDKAKNSAYLQMNSLRAEDTAVYYCTRTITTTEGYWFFDVWGQGTLVTVSS
VL: DIQLTQSPSSLSASVGDRVTITCRASESVDYYGSSLLQWYQQKPGKAPKLLIYAASKLASGVPSRFSGSGSGTDFTLTISSLQPEDFATYYCQQTRKAYTFGQGTKLEIKR
In the case of B6, the relative competition coefficient in the experiment with hGUCY2C ECD-His [7] is 100; with hGUCY2C ECD-His [8], 6; with hGUCY2C ECD-His [9] it was 12; in the experiment with hGUCY2C ECD-His [10] it was 3. The “EC50 (read off the curve)” value in [11], in experiment [12] and in experiment [13] was about 300 pM in each case.

B7: 146 L1H1-2 (bispecific antibody)
heavy 1: not shown
light 1: not shown
heavy 2: EFQLVQSGAEVKKPGASVKVSCKASGYSFTDYNMNWVRQAPGQRLEWMGLINPKYGTTNYNQKFKGRVTLTVDQSSSTAYMELSSLRSEDTAVYYCARDNYPAWFAYWGQGTTVTVSSGGGGSSGAPRFLTRPKASVVSVGKDATLSCQIVGNPFPQVSWEKDKQPVTAGVRFRLAQDGDLYRLKILDLQLSDSGQYVCRARNAHGEAFACLGLQVDAEADKTHTCPPCPAPEAAGGPSVFLFPPKPKDTLMISRTPEVTCVVVDVSHEDPEVKFNWYVDGVEVHNAKTKPREEQYNSTYRVVSVLTVLHQDWLNGKEYKCKVSNKALPAPIEKTISKAKGQPREPQVCTLPPSREEMTKNQVSLSCAVKGFYPSDIAVEWESNGQPENNYKTTPPVLDSDGSFFLVSKLTVDKSRWQQGNVFSCSVMHEALHNHYTQKSLSLSPGK
light 2: EIVLTQSPATLSLSPGERATLSCSASSSLNYMYWYQQKPGSSPRPWIYRTSQLASGVPARFSGSGSGTDYTLTISSLEPEDFAVYYCQQYHSYPPTFGGGTKVEIKGGGGSGIPPKIECLPIDISIDEGKVLTVASAFTGEPTPEVTWSTGGRKIHSQEQGRFHIENTDDSTTLTIKDVQKQDGGLYTLTLRNEFGSDSATVNIHIRSI
notes: GUCY2C-CD3, Format 2, CD3 arm S107E
B7: in [14], the “IC50 (nM), killing of HT-55(++) with PBMC” value was found to be 0.56 nM; the “IC50 (nM), killing of LS174T(+) with PBMC” value stood at 0.49 nM; the “IC50 (nM), killing of LS1034(+++) with PBMC” value came to 0.17 nM. The EC50 with hGUCY2C ECD-His [4] was found to be 60 pM.

These data come from patent US20260028421A1 (JIANGSU HENGRUI PHARMACEUTICALS, published 2026).
